Assay results reported in IntAct's records for PubMed 21658387.
Values belong to the substance of their own block, whether it stands above or below them.

Columns and labels:
akt1_human AKT1 [1] = target: akt1_human AKT1 (UniProt P31749)
mbp_bovin MBP [2] = target: mbp_bovin MBP (UniProt P02687)
akt1_human AKT1 [3] = target: akt1_human AKT1 (UniProt P31749); remark: listed apart in the source
mbp_bovin MBP [4] = target: mbp_bovin MBP (UniProt P02687); remark: listed apart in the source
akt1_human AKT1 [5] = target: akt1_human AKT1 (UniProt P31749); remark: listed apart in the source

akt1_human AKT1, sequence (P31749 whole entry): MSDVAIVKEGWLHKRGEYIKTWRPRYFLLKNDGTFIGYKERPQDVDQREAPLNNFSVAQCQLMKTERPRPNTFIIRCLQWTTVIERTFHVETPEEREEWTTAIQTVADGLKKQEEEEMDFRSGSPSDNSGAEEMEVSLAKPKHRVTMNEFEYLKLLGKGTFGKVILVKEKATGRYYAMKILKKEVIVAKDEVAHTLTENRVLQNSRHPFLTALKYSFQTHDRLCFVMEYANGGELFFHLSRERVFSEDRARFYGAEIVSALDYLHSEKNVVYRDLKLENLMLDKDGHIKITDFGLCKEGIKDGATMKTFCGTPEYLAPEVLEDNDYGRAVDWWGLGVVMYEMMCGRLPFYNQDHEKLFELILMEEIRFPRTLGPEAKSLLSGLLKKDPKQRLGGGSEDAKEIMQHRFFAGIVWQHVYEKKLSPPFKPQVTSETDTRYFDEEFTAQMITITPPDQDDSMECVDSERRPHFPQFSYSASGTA
mbp_bovin MBP, sequence (P02687 whole entry): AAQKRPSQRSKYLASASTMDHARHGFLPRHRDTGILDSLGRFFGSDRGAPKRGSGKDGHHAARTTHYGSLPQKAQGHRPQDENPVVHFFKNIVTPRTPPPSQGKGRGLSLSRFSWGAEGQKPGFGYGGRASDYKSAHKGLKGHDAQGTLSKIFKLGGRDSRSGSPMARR

- effect of a mutation on the interaction (akt1_human AKT1 [1]): decreasing interaction
- effect of a mutation on the interaction (mbp_bovin MBP [2]): increasing interaction
Substance: Leucine-rich repeat serine/threonine-protein kinase 2 (Homo sapiens), Q5S007 I2020T

- effect of a mutation on the interaction (akt1_human AKT1 [3]): decreasing interaction
Substance: Leucine-rich repeat serine/threonine-protein kinase 2 (Homo sapiens), Q5S007 R1441C

- effect of a mutation on the interaction (mbp_bovin MBP [4]): increasing interaction
- effect of a mutation on the interaction (akt1_human AKT1 [5]): decreasing interaction
Substance: Leucine-rich repeat serine/threonine-protein kinase 2 (Homo sapiens), Q5S007 G2019S
